Measured values reported in US20020009436A1, “Methods and compositions for inhibiting adhesion by microorganisms” (priority 1999, published 2002).

Columns and labels:
[1] = test system: S. epidermidis (clinical isolate); assay: Collagen binding assay, S. epidermidis; assay type: cell-based; settings: untreated 0.09
Description: (§1) Wells were filled with 1 mg/ml soluble collagen overnight at 4° C. Control wells were coated with 1% BSA. The protein solutions were removed and permitted to stand at 37° C. for 1 h. A solution of 2% BSA was added to the wells to block unoccupied sites and prevent non-specific binding of bacteria. After 30 min, BSA was removed and the wells were washed once with distilled water. Finally, the bacterial suspensions (100 μl, OD 1.4) were added to the plates and incubated at 37° C. for 2 h. Unbound bacteria were removed by washing the wells three times with PBS containing 0.01% Tween 20. The wells were dried at 37° C. for 30 min and stained with crystal violet for 15 min. Wells were rinsed with distilled water and dried at 37° C. for 2 h. After adding 100 μl of 95% (v/v) ethanol to each well the plates were then shaken to release the stain and a reading of 550 nm was carried out.

S. pyogenes [2] = assay: Collagen binding assay, S. pyogenes; assay type: cell-based
Description: as §1

P-fimbriated E. coli = assay: Flow cytometric adhesion of P-fimbriated E. coli to UECs; assay type: cell-based
Text: Methods for handling polyphenol oxidase and asparaginase and for observing adhesion by microorganisms were generally as described in the previous Examples with variations to adapt these methods to epithelial cells.
The bacteria were labeled intracellularly with the fluorescein dye CFDA-SE. Median fluorescence intensity of the UECs was taken as a measure of the number of bacteria attached to them. In the Figures below, median fluorescence is converted to % adhesion using control conditions (UEC+untreated bacteria) as 100%.

[3] = test system: type 1-fimbriated and P-fimbriated E. coli; assay: Growth inhibition of E. coli; assay type: cell-based
Description: Similar and/or art recognized methods were used to monitor the effects of asparaginase on growth of other microbes including two strains of E. coli, S. pyogenes, Klebsiella pneumoniae, Bacillus cereus, and Proteus vulgaris. Both type 1-fimbriated and P-fimbriated E. coli were incubated with polyphenol oxidase, asparaginase, and ampicillin to test the ability of these agents to inhibit the growth of the bacteria.

[4] = test system: endogenous bacteria attached to UECs; assay: Removal of endogenous biota from sloughed urinary epithelial cells; assay type: cell-based; settings: for Percent UECs with ≧30 Bacteria Attached: PBS 30
Description: Sloughed epithelial cells were incubated with the enzymes, collected by filtration, transferred to microscope slides and stained with crystal violet. Then 50 epithelial cells from each slide were randomly assessed for the numbers of bacteria associated with them and placed into one of four categories: Cells with 0-9, 10-29, 30-49, or >50 bacteria associated with them.

[5] = test system: P. gingivalis W50 (adhesin) / A. naeslundii T14V (receptor); assay: Coaggregation P. gingivalis W50 / A. naeslundii T14V; settings: P. gingivalis W50 (adhesin) enzyme treated; polyphenol oxidase 90 U/ml, asparaginase 20 U/ml
Description: (§2) S. sanguis 10556, A. naeslundii strains 12104 and T14V and E. coli were grown static cultures in Todd-Hewitt broth (BBL Microbiology Systems, Cockeysville, Md.). P. gingivalis W50, A. actinomycetemcomitans and C. ochracea were grown in brain heart infusion broth (BBL). F. nucleatum 22586 and P. intermedia 25611 were grown in modified Schaedler broth (BBL). All oral species except S. sanguis 10556 were incubated at 37° C. as static cultures under an anaerobic atmosphere containing H2, CO2 and N2(10:10:80) with GasPaks (BBL). S. sanguis was incubated at 37° C. as static cultures in 5% CO2.
(§3) Bacteria were harvested in the mid to late exponential growth phase by centrifugation (10,000×g for 10 min at 4° C.). The cells were washed twice in coaggregation buffer (30 mM 3-[N-morpholino]propanesulfonic acid (MOPS), pH 7.0) and adjusted to an optical density of 0.6-0.8 at 540 nm (1-cm path). […]
(§4) Coaggregation was assessed by turbidity changes. Following mixing of the cells for 10 s on a Vortex mixer, absorbance readings were made every 30 min. The percentage of coaggregation was calculated from the following formula: Percent coaggregation=[OD540(A)+OD540(B)−OD540(A+B)]/(OD540(A)+OD540(B)), where A is the control containing cells of one strain, B is the control containing cells of the other strain, and A+B is the reaction mixture containing both cells. […]

[6] = test system: F. nucleatum (adhesin) / A. actinomycetemcomitans (receptor); assay: Coaggregation F. nucleatum / A. actinomycetemcomitans; settings: polyphenol oxidase 90 U/ml, asparaginase 20 U/ml
Description: as §2, §3, §4

S. pyogenes [7] = assay: Adhesion of S. pyogenes to human buccal cells (light microscopy counts); assay type: cell-based, Streptococcus pyogenes
Description: Streptococcus pyogenes strains were grown and pure cultures isolated on blood agar plates at 37° C. Each were subsequently inoculated into brain heart infusion (BHI) nutrient broth at 37° C. for continued growth.
The cells of each S. pyogenes strains were then washed with phosphate buffer (pH 7) three times. The optical density (OD) of each stain was measured using a spectrophotometer, and adjusted to 0.8. One ml of each strain was treated with polyphenol oxidase or asparaginase. The controls and enzyme-supplemental cells were incubated for ninety minutes at 37° C. Each were washed three times for ten minutes at 15,000 rpm, and recollected in 0.9 ml phosphate buffer.
Human buccal cells were collected and cleaned in phosphate buffer. The buccal cells and S. pyogenes were combined in a ratio of 3:1 respectively, for each strain and allowed to incubate 30 min. Buccal cells were removed by centrifugation (500×g) and washed three times to reduce streptococcal background. The buccal cell-streptococcal complexes were then smeared on slides. The resulting slides were stained using the Gram method, and viewed under the 100× oil immersion lens. The number of S. pyogenes for each strain was counted for at least 50 buccal cells.

Influenza A strain H1N1 = assay: Hemagglutination of chicken erythrocytes by influenza virus; assay type: cell-based; settings: polyphenol oxidase 70 U/ml or asparaginase 10 U/ml; untreated 256
S. aureus = assay: Fibronectin binding assay, S. aureus; assay type: cell-based; settings: polyphenol oxidase 80 U/ml, asparaginase 20 U/ml
Description: Wells were filled with human serum fibronectin (50 μg/ml) diluted in carbonate buffer (50 mM Na2CO3—NaHCO3, pH 9.5 overnight). Controls were coated with 1% BSA. The wells were washed three times with PBS and incubated with PBS-Tween (0.5% Tween 20 and 0.05% NaN3) 1 h at 37° C. After attachment, the wells were washed three times with PBS-Tween and allowed to dry. Subsequent assays were as described hereinabove.

[8] = test system: A. naeslundii ATCC 12104 (adhesin) / Capnocytophaga ochracea (receptor); assay: Coaggregation A. naeslundii ATCC 12104 / Capnocytophaga ochracea; settings: A. naeslundii ATCC 12104 (adhesin) enzyme treated; polyphenol oxidase 90 U/ml, asparaginase 20 U/ml
Description: as §2, §3, §4

[9] = ampicillin 1 mg/ml to 0.015 mg/ml, polyphenol oxidase 1128 to 17.5 units/ml, asparaginase 20 to 0.31 units/ml, data not shown

B1: asparaginase: enzyme that catalyzes hydrolysis of the side chain amide group of asparagine to a carboxyl group; E. coli asparaginase (protein, UniProt P00805 23-348, looked up)
L-asparaginase 2: LPNITILATGGTIAGGGDSATKSNYTVGKVGVENLVNAVPQLKDIANVKGEQVVNIGSQDMNDNVWLTLAKKINTDCDKTDGFVITHGTDTMEETAYFLDLTVKCDKPVVMVGAMRPSTSMSADGPFNLYNAVVTAADKASANRGVLVVMNDTVLDGRDVTKTNTTDVATFKSVNYGPLGYIHNGKIDYQRTPARKHTSDTPFDVSKLNELPKVGIVYNYANASDLPAKALVDAGYDGIVSAGVGNGNLYKSVFDTLATAAKTGTAVVRSSRVPTGATTQDAEVDDAKYGFVASGTLNPQKARVLLQLALTQTKDPQQIQQIFNQY
- Absorbance (collagen) [1]: 0.05
- Absorbance (collagen) (S. pyogenes [2]; S. pyogenes M4, untreated 0.19): 0.10
- Absorbance (collagen) (S. pyogenes [2]; S. pyogenes M24, untreated 0.31): 0.13
- decrease in adhesion to UECs (P-fimbriated E. coli; asparaginase 2.5 units/ml): 45%
- decrease in adhesion to UECs (P-fimbriated E. coli; asparaginase 5 units/ml): 55%
- decrease in adhesion to UECs (P-fimbriated E. coli; asparaginase 25 units/ml): 85%
- adhesion to UECs (P-fimbriated E. coli; bacteria first incubated with globoside, then polyphenol oxidase 282 units/ml or asparaginase 5 units/ml): nearly the same as that of untreated bacteria
- inhibition of growth of two strains of E. coli [3]: did not significantly inhibit growth
- inhibition of growth of P-fimbriated E. coli [3, 9]: Neither polyphenol oxidase (1128 units/ml to 17.5 units/ml) or asparaginase (20 units/ml to 0.31 units/ml) concentrations tested were able to inhibit the growth
- inhibition of growth of type 1-fimbriated E. coli [3, 9]: Neither polyphenol oxidase (1128 units/ml to 17.5 units/ml) or asparaginase (20 units/ml to 0.31 units/ml) concentrations tested were able to inhibit the growth
- numbers of UECs with large numbers of endogenous bacteria [4]: little or no effect
- Percent UECs with ≧30 Bacteria Attached ([4]; asparaginase 5 U/ml, 30 minute incubation): 28%
- Percent UECs with ≧30 Bacteria Attached ([4]; asparaginase 10 U/ml, 30 minute incubation): 26%
- effects on the numbers of endogenous bacteria attached to UECs ([4]; polyphenol oxidase 70 or 140 U/ml, asparaginase 5 or 10 U/ml, 30 minute incubation): relatively minor effects
- Inhibition % of coaggregation [5]: i 31%
- Inhibition % of coaggregation ([6]; A. actinomycetemcomitans (receptor) enzyme treated): 40%
- Inhibition % of coaggregation ([6]; F. nucleatum (adhesin) enzyme treated): 23%
- Percent Inhibition (S. pyogenes [7]; Strain M4, asparaginase 100 U/ml): 62%
- # S. pyogenes buccal cell, Asparaginase (100 U/ml) (S. pyogenes [7]; Strain M4, asparaginase 100 U/ml, untreated 183): 69
- Percent Inhibition (S. pyogenes [7]; Strain M12 AC, asparaginase 100 U/ml): 53%
- # S. pyogenes buccal cell, Asparaginase (100 U/ml) (S. pyogenes [7]; Strain M12 AC, asparaginase 100 U/ml, untreated 191): 89
- Percent Inhibition (S. pyogenes [7]; Strain M14, asparaginase 100 U/ml): 43%
- # S. pyogenes buccal cell, Asparaginase (100 U/ml) (S. pyogenes [7]; Strain M14, asparaginase 100 U/ml, untreated 183): 105
- Percent Inhibition (S. pyogenes [7]; Strain M14, asparaginase, third line of the strain (line of polyphenol oxidase 300), own concentration not given): 47%
- # S. pyogenes buccal cell, Asparaginase (100 U/ml) (S. pyogenes [7]; Strain M14, asparaginase, third line of the strain (line of polyphenol oxidase 300), own concentration not given, untreated 183): 77
- Percent Inhibition (S. pyogenes [7]; Strain M15 Lowe, asparaginase 100 U/ml): 23%
- # S. pyogenes buccal cell, Asparaginase (100 U/ml) (S. pyogenes [7]; Strain M15 Lowe, asparaginase 100 U/ml, untreated 120): 93
- Percent Inhibition (S. pyogenes [7]; Strain M24, asparaginase 100 U/ml): 61%
- # S. pyogenes buccal cell, Asparaginase (100 U/ml) (S. pyogenes [7]; Strain M24, asparaginase 100 U/ml, untreated 142): 55
- Percent Inhibition (S. pyogenes [7]; Strain M24 VAN, asparaginase 100 U/ml): 48%
- # S. pyogenes buccal cell, Asparaginase (100 U/ml) (S. pyogenes [7]; Strain M24 VAN, asparaginase 100 U/ml, untreated 131): 68
- Percent Inhibition (S. pyogenes [7]; Strain M+, asparaginase 100 U/ml): 64%
- # S. pyogenes buccal cell, Asparaginase (100 U/ml) (S. pyogenes [7]; Strain M+, asparaginase 100 U/ml, untreated 148): 53
- Hemagglutination Titers, Dilution of Virus + RBCs (fold) (Influenza A strain H1N1): 64 fold
- Absorbance (fibronectin) (S. aureus; S. aureus Cowan, untreated 0.33): 0.18
- Absorbance (fibronectin) (S. aureus; S. aureus Wood, untreated 0.42): 0.35
- Inhibition % of coaggregation [8]: 25%
